Assay results published in PMC6168691, “The amino‐terminal domain of Mycobacterium tuberculosis ClpB protein plays a crucial role in its substrate disaggregation activity” (FEBS Open Bio, 2018).
Several values for one entry are separate records, joined by “and”; a condition that tells them apart may be missing. Identical values can stand only once.

How the values were obtained:
[1] = target: FITC-labelled casein; assay: fluorescence polarisation
[2] = target: N-terminally truncated Mycobacterium tuberculosis ClpB (ClpB∆N, residues 149–848) (Mycobacterium tuberculosis H37Rv) (UniProt P9WPD1); assay: SEC; Superdex-200, buffer A; protein 0.2 mg/mL incubated with 5 mM ATP for 10 min at room temperature before loading
[3] = target: N-terminally truncated Mycobacterium tuberculosis ClpB (ClpB∆N, residues 149–848) (Mycobacterium tuberculosis H37Rv) (UniProt P9WPD1); assay: SEC; Superdex-200 (1 × 60 cm), buffer A (50 mM Tris/HCl pH 7.5, 100 mM KCl, 10% glycerol, 1 mM EDTA, 1 mM DTT); protein loaded at 0.2 mg/mL, no nucleotide
[4] = target: KJE chaperone complex (DnaK, DnaJ1, GrpE of Mycobacterium tuberculosis) (Mycobacterium tuberculosis | Mycobacterium tuberculosis H37Rv) (UniProt P9WMJ9)
[5] = target: malate dehydrogenase from pig heart (pig) (UniProt P00346)
[6] = target: Mycobacterium tuberculosis DnaK (Mycobacterium tuberculosis) (UniProt P9WMJ9)
[7] = target: N-terminally truncated Mycobacterium tuberculosis ClpB (ClpB∆N, residues 149–848) (Mycobacterium tuberculosis H37Rv) (UniProt P9WPD1); assay: SEC; Superdex-200 (1 × 60 cm), buffer A; protein loaded at 6 mg/mL, no nucleotide
[8] = target: recombinant firefly luciferase (firefly) [luciferase: P08659]
[9] = target: recombinant firefly luciferase (firefly) [luciferase: P08659]; remark: listed apart in the source
[10] = target: malate dehydrogenase from pig heart (pig) (UniProt P00346); remark: listed apart in the source
[11] = target: T1, Mycobacterium tuberculosis ClpB, full length (residues 1–848) (Mycobacterium tuberculosis H37Rv, UniProt P9WPD1 1-848); assay: fluorescence polarisation; conditions: both partners purified
T1 construct: also called Mtb ClpB; WT ClpB

[12] = target: T1, Mycobacterium tuberculosis ClpB, full …; assay: fluorescence polarisation; conditions: both partners purified; remark: listed apart in the source

malate dehydrogenase from pig heart (pig), sequence (P00346 25-338): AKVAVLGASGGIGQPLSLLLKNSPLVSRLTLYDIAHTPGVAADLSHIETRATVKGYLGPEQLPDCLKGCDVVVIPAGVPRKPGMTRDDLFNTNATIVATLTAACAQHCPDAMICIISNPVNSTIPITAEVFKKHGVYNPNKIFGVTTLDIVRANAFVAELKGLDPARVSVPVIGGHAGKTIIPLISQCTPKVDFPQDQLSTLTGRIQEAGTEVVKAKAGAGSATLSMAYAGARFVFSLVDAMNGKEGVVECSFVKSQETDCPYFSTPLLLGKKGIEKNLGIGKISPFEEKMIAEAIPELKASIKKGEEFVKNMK
recombinant firefly luciferase (firefly) [luciferase: P08659], sequence (P08659 whole entry): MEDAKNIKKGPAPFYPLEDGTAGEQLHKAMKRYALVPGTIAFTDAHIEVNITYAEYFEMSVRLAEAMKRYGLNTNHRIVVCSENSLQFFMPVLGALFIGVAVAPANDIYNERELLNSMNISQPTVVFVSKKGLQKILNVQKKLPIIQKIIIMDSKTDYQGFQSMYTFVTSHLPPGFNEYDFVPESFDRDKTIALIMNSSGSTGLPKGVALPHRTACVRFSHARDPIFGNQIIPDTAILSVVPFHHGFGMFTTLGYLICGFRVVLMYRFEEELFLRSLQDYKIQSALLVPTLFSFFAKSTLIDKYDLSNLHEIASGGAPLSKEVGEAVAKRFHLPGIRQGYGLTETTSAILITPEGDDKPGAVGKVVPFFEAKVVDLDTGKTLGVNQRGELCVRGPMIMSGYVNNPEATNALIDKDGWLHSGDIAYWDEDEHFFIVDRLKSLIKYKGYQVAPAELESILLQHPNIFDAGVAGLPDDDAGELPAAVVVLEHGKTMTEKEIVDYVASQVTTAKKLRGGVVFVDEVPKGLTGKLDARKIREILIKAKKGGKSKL

How did the Kd [1] turn out when “Mycobacterium tuberculosis ClpB F140T (from UniProt P9WPD1 1-848) (natural protein)” was run?
Its Kd is 24 µM.

“Mycobacterium tuberculosis ClpB L97D (from UniProt P9WPD1 1-848) (natural protein)” was tested. Which Kd [1] did it give?
The Kd was 10 µM.

How did the Kd [1] turn out when “Mycobacterium tuberculosis ClpB L101Q (from UniProt P9WPD1 1-848) (natural protein)” was run?
The Kd was 5.3 µM.

“Mycobacterium tuberculosis ClpB V141K (from UniProt P9WPD1 1-848) (natural protein)” was tested. Which Kd [1] did it give?
Its Kd is 10 µM.

“N-terminally truncated Mycobacterium tuberculosis ClpB (ClpB∆N, residues 149–848) (from UniProt P9WPD1 149-848) (domain or fragment)” was tested. Which stoichiometry N [2] did it give?
The stoichiometry N was 6.

What about the stoichiometry N [3] of the same molecule?
The stoichiometry N was 6 and 2.

And the reactivation of small aggregates of MDH by 1 μM ClpB∆N with 1 μM KJE complex (about 25% by ClpB∆N alone, 3.6% by KJE alone) [4]?
The reactivation of small aggregates of MDH by 1 μM ClpB∆N with 1 μM KJE complex (about 25% by ClpB∆N alone, 3.6% by KJE alone) was 32%.

And the reactivation of small aggregates of MDH by 1 μM ClpB∆N alone, percent of native MDH activity [5]?
Its reactivation of small aggregates of MDH by 1 μM ClpB∆N alone, percent of native MDH activity is 25%.

And the ATPase activity of ClpB∆N left at 1 mM ADP (5 mM ATP) with 1 μM DnaK [6]?
The ATPase activity of ClpB∆N left at 1 mM ADP (5 mM ATP) with 1 μM DnaK was 17%.

What about the stoichiometry N [7] of the same molecule?
The stoichiometry N was 6 and 4.

And the reactivation of large aggregates of luciferase by ClpB∆N against ClpB, alone and with KJE (luminescence) [8]?
The reactivation of large aggregates of luciferase by ClpB∆N against ClpB, alone and with KJE (luminescence) was over 20%.

And the Kd [1]?
Its Kd is 6.94 µM.

What about the prevention of heat aggregation of luciferase by the highest concentration of ClpB∆N in the absence of ATP [9] of the same molecule?
Its prevention of heat aggregation of luciferase by the highest concentration of ClpB∆N in the absence of ATP is 24%.

What about the drop of reactivation activity of ClpB∆N alone on large against small aggregates of MDH [10] of the same molecule?
The drop of reactivation activity of ClpB∆N alone on large against small aggregates of MDH was 80%.

What about the drop of reactivation activity of ClpB∆N with KJE on large against small aggregates of MDH [10] of the same molecule?
Its drop of reactivation activity of ClpB∆N with KJE on large against small aggregates of MDH is 48%.

B1: FITC-labelled casein (natural protein)
chain: RPKHPIKHQGLPQEVLNENLLRFFVAPFPEVFGKEKVNELSKDIGSESTEDQAMEDIKQMEAESISSSEEIVPNSVEQKHIQKEDVPSERYLGYLEQLLRLKKYKVPQLEIVPNSAEERLHSMKEGIHAQQKEPMIGVNQELAYFYPELFRQFYQLDAYPSGAWYYVPLGTQYTDAPSFSDIPNPIGSENSEKTTMPLW
modifications: FITC label
How did the Kd [11] turn out when B1 was run?
The Kd was 900 nM.

What about the Kd [12] of the same molecule?
Its Kd is 880 ± 470 nM.
